# B1: mSIRPα-Fc-CD40L: Murine version of SIRPα-Fc-CD40L, made from murine proteins to assess activity in vivo (protein)
# chain: KELKVTQPEKSVSVAAGDSTVLNCTLTSLLPVGPIRWYRGVGPSRLLIYSFAGEYVPRIRNVSDTTKRNNMDFSIRISNVTPADAGIYYCVKFQKGSSEPDTEIQSGGGTEVYVLAKPSPPEVSGPADRGIPDQKVNFTCKSHGFSPRNITLKWFKDGQELHPLETTVNPSGKNVSYNISSTVRVVLNSMDVNSKVICEVAHITLDRSPLRGIANLSNFIRVSPTVKVTQQSPTSMNQVNLTCRAERFYPEDLQLIWLENGNVSRNDTPKNLTKNTDGTYNYTSLFLVNSSAHREDVVFTCQVKHDQQPAITRNHTVLGFAHSSDQGSMQTFPDNNATHNWNVPRDCGCKPCICTVPEVSSVFIFPPKPKDVLTITLTPKVTCVVVDISKDDPEVQFSWFVDDVEVHTAQTQPREEQFNSTFRSVSELPIMHQDWLNGKEFKCRVNSAAFPAPIEKTISKTKGRPKAPQVYTIPPPKEQMAKDKVSLTCMITDFFPEDITVEWQWNGQPAENYKNTQPIMNTNGSYFVYSKLNVQKSNWEAGNTFTCSVLHEGLHNHHTEKSLSHSPGKHRRLDKVEEEVNLHEDFVFIKKLKRCNKGEGSLSLLNCEEMRRQFEDLVKDITLNKEEKKENSFEMQRGDEDPQIAAHVVSEANSNAASVLQWAKKGYYTMKSNLVMLENGKQLTVKREGLYYVYTQVTFCSNREPSSQRPFIVGLWLKPSSGSERILLKAANTHSSSQLCEQQSVHLGGVFELQAGASVFVNVTEASQVIHRVGFSSFGLLKL
# How the values were obtained:
# [1] = test system: peripheral blood cell populations; experiment: Peripheral blood cell populations in treated mice; assay type: in vivo
# Procedure: FIG. 22B is a graph showing RBCs and test agents that were incubated at 37° C. for 24 hours and then the media was assessed at OD490 for changes in absorbance due to hemoglobin being released from lysing RBCs. […] FIG. […] Cell populations were assessed by flow cytometry and included CD20+ B cells, CD110+, CD4+/CD11c+, and CD8+/CD11c+ dendritic cells.
# Receptor occupancy was evaluated on circulating CD40+ lymphocytes.
# splenic dendritic cells = experiment: In vivo splenic dendritic cell activation; parameters: species or system mice; conditions: single IV dose; 6 or 24 hours, especially the 24 hour time point
# Procedure: For each panel, the samples are (left to right): untreated, sheep RBCs, αCD47 (MIAP301), αSIRPα (P84), mSIRPα-Fc-CD40L, mSIRPα-Fc-CD40L (24 Hrs), and αCD47 (MIAP301) (24 hrs). FIG. 9B is a quantitation of in vivo dendritic cell activation corresponding to FIG. 9A. Shown is the absolute percent of CD4+ and CD8+ dendritic cells; also gated on CD11c and DC1R2. In FIG. 9B, for each panel, the samples are (left to right): untreated, sheep RBCs, αCD47 (MIAP301), αSIRPα (P84), SIRPα-Fc-CD40L (150 μg), SIRPα-Fc-CD40L (300 μg), SIRPα-Fc-CD40L (300 μg) (24 Hrs), and αCD47 (MIAP301) (24 hrs).
# An in vivo assay to examine SIRPα/CD47 function in mice was describe in Yi et al., “Splenic Dendritic Cells Survey Red Blood Cells for Missing Self-CD47 to Trigger Adaptive Immune Responses. Immunity. 2015;43(4):764-75) (the contents of which is incorporated by reference in its entirety). This assay detects the activation status of splenic dendritic cells in response to SIRPa/CD47 inhibitors or to infused sheep red blood cells (RBC).
# After 6 or 24 hours, mice were euthanized and their spleens excised, dissociated, and assessed by flow cytometry for populations of activated CD4+ dendritic cells (DCs) (FIG. 9A, left panel) or CD8+dendritic cells (FIG. 9A, right panel); both populations of dendritic cells were also positive for MHC II (I-Ab), CD11c, and DC1R2.
# A20 lymphoma = experiment: Murine phagocytosis assay, BMDMs with A20 lymphoma cells; assay type: cell-based
# WEHI3 leukemia cells = experiment: Murine phagocytosis assay, BMDMs with WEHI3 leukemia cells; assay type: cell-based
# [2] = target: recombinant mouse CD47 and CD40 (Mus musculus, UniProt P27512+Q61735); experiment: Dual functional ELISA of the murine surrogate; assay type: binding
# CT26 tumors = experiment: Syngeneic CT26 colon tumor model versus CD40/CD47 antibodies (Example 11); assay type: in vivo, mice
# Procedure: FIG. 20C: a similar CT26 experiment was initiated as described in FIG. 20A above, however mice were pre-treated on days −1, 1, and 10 with IP injections of 100 μg of either or both CD4/CD8 depleting antibodies. Mice were inoculated with CT26 tumors on day 0 and treated at a later starting date than FIG. 20A with mSIRPα-Fc-CD40L ARC on days 7, 9, and 11. […] In FIG. 20D and FIG. 20E, BALB/C mice were inoculated with WEHI3 tumors (FIG. 20D) or A20 tumors (FIG. 20E) subcutaneously on the rear flank, and then treated via IP injection with anti-CD20 or mSIRPα-Fc-CD40L on days 7, 9, and 11 (WEHI3) or days 10, 12, and 14 (A20); when tumors were established and reached approximately 57-60 mm^3. A cohort of mice were pre-treated with an interferon alpha receptor 1 (IFNAR1) blocking antibody ([…] by IP injection) on days -1, 1, and 10 (WEHI3) or on days −1, 1, and 13 (A20). FIG. 20F to FIG. 20H are graphs showing blockade of CD4, CD8, and IFNAR1. Peripheral blood analysis by flow cytometry of CD4 (FIG. 20F), CD8 (FIG. 20G), and IFNAR1 (FIG. 20H) depletion following depleting antibody treatment corresponding to FIG. 20C to FIG. 20E. Samples were normalized to untreated animals.
# Implanted CT26 tumors were allowed to grow to ˜30 mm^3 before treatment was initiated with a fixed regimen of two doses of either a CD40 agonist antibody (clone FGK4.5), a CD47 blocking antibody (clone MIAP301), a combination of the two antibodies, or the murine SIRPα-Fc-CD40L chimeric protein. […] Based on this observation, these experiments were repeated in the setting of antibody-mediated depletion of both CD4+ and CD8+ cells (FIG. 20C).
# CD4 and CD8 depletion was verified in the peripheral blood at multiple time points during the experiment (see, FIG. 20F and FIG. 20G).
# murine CD40 = target: T1, murine CD40 (Mus musculus, UniProt P27512); experiment: Murine CD40/NFκB-luciferase reporter in CHOK1 cells; assay type: cell-based
# T1 construct: expressed in transfected cells; host or cells: CHO-K1
# T1 sequence (P27512 20-289): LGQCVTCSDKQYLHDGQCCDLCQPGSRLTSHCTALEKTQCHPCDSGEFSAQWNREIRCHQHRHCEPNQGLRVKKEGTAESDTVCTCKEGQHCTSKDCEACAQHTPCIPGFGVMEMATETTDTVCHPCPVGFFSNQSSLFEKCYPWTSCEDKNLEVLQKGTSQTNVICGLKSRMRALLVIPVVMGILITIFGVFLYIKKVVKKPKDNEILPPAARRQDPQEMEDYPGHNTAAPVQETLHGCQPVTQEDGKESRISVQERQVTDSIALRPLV
# Procedure: Cells were cultured with a dose titration of recombinant human CD40L-his or SIRPα-Fc-CD40L, and luminescence was read on a luminometer after 6 hours. The left histograms are (−) Control, middle histograms are hCD40L-His and the right histograms are SIRPα-Fc-CD40L. […] CD8-depleted PBMC from 33-50 distinct human donors were cultured with media only, the neoantigen positive control KLH, the clinical stage non-activating control Exenatide, or 0.3, 3, 30, or 300 nM of SIRPα-Fc-CD40L. At 10 μg/ml on the X-axis, the samples are, top to bottom: hCD40L-Fc, SIRPα-Fc-CD40L, ahCD40 (HB14) ad (−) Control. […] The left histograms are (−) control, second from left are FC-mCD40L, second from right are anti-mCD40 (FGK4.5) and right are mSIRPα-Fc-CD40L.
# The murine version of the CD40/NFκB-luciferase system was established in CHOK1 cells.
molecule,measurement,setting,value
B1,overall CD45+ peripheral lymphocytes,[1]; 24 hours following a single IP injection (300 μg),decrease in overall CD45+ peripheral lymphocytes
same,CD8+ dendritic cells in peripheral blood,[1]; mice,significant increase in CD8+ dendritic cells
same,CD40+ B cells in peripheral blood,[1]; mice,peripheral decrease in CD40+ B cells
same,"splenic CD4+ and CD8α+ DCs expressing high levels of MHCII, CD80, and CD86",splenic dendritic cells,greatly upregulated splenic CD4+ and CD8α+ DCs
same,phagocytic activity,A20 lymphoma,induced strong phagocytic activity
same,phagocytosis index compared with CD47 blocking antibody,A20 lymphoma,higher phagocytosis index than the CD47 blocking antibody
same,phagocytic activity,WEHI3 leukemia cells,induced strong phagocytic activity
same,phagocytosis index compared with CD47 blocking antibody,WEHI3 leukemia cells,higher phagocytosis index than the CD47 blocking antibody
same,simultaneous binding to recombinant mouse CD47 and CD40,[2],simultaneous binding
same,rejection of a secondary tumor challenge among mice that rejected the primary tumor,CT26 tumors; no additional treatment,60%
same,mice rejecting primary tumors,"CT26 tumors; two doses, treatment started at ˜30 mm^3",62%
same,tumor growth / survival,"CT26 tumors; two doses, treatment started at ˜30 mm^3, versus vehicle controls",significant prolongation in tumor growth and survival
same,"activation of the NFκB pathway, murine CD40 reporter",murine CD40,consistently stimulated potent activation of the NFκB pathway

# — US20200071380A1, “COMBINATION THERAPIES COMPRISING SIRP ALPHA-BASED CHIMERIC PROTEINS” (Shattuck Labs, Inc., priority 2018, published 2020)
